Among the data in publication PMC7190724, “Improved GPCR ligands from nanobody tethering” (Nature Communications, 2020) are cAMP response (cAMP-activated luciferase luminescence) values, retold here.

The assay deals with PTHR1_(YFPΔECD).

With VHHGFP-PTH(1-9), the cAMP response (cAMP-activated luciferase luminescence) at the highest concentration tested, 100 nM, against the maximal response observed; precise EC50 could not be obtained (% of the maximal response) turned out to be 40.
